The text below walks through data of patent publication US20110158939A1 (published 2011).

The target of test [1] is T1, wild type human Interleukin-4 (human, UniProt P05112 25-153).
T1 sequence (looked up): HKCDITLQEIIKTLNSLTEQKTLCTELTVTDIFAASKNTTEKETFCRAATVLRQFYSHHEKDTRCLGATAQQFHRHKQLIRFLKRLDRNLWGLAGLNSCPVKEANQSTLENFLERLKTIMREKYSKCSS
The test is described as follows: cell-based or functional assay.

The target of test [2] is T2, IL-4 receptor α chain (UniProt P24394 26-232, limits assumed).
T2 construct: also called IL-4Rα; IL-4-receptor alpha chain
T2 sequence (looked up): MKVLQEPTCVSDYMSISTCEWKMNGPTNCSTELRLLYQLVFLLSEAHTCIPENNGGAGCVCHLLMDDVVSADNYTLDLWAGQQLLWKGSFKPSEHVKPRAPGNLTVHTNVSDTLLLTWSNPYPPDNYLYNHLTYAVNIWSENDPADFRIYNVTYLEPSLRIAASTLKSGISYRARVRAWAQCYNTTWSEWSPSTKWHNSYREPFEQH
The test is described as follows: Biacore, IL-4 receptor α chain immobilized. (Surface plasmon resonance follows binding to a sensor surface in real time, without labels.)

Test [3] deals with T2, IL-4 receptor α chain. The test is described as follows: Biacore, IL-4 receptor α chain immobilized (n = 7).
The target of test [4] is T2, IL-4 receptor α chain. The test is described as follows: Biacore, pre- and post-nebulized samples (Aeroneb Pro), no difference between them.

B1: IL-4RA (mutant human IL-4 protein with the R121D/Y124D pair of substitutions) (ligand, UniProt P05112 25-153, looked up)
chain: HKCDITLQEIIKTLNSLTEQKTLCTELTVTDIFAASKNTTEKETFCRAATVLRQFYSHHEKDTRCLGATAQQFHRHKQLIRFLKRLDRNLWGLAGLNSCPVKEANQSTLENFLERLKTIMDEKDSKCSS
notes: mature; Substitution positions count on the mature 129-residue protein, not on the precursor; also called mhIL-4; IL-4 mutein
The koff is the first-order rate constant of dissociation. Higher therefore signals fast dissociation. As usually defined, the kon is a measure of how fast the partners come together. As usually defined, the Kd is the concentration at which binding is half-saturated. On to B1, for which, in test [1], the “TF-1/IL-4 proliferation assay, EC50 of inhibition of IL-4-induced cell proliferation” value lay within 0.2 to 0.3 nM; the “TF-1/IL-4 proliferation assay, IC50, post nebulization (Pari LC Plus)” value turned out to be 0.483 nM; the “TF-1/IL-4 proliferation assay, IC50, pre nebulization (Pari LC Plus)” value was 0.459 nM. Besides, in the test with IL-4 receptor α chain [2], the koff stood at 0.0017 s⁻¹ and the kon amounted to 1.6e+07 M⁻¹ s⁻¹. In the test with IL-4 receptor α chain [3], this molecule returned an equilibrium dissociation constant (Kd) of 0.14 nM. Besides, the equilibrium dissociation constant (Kd) in the test with IL-4 receptor α chain [4] was roughly 0.1 nM.
